{"source": "patent US20110271358A1", "about": "(Dana-Farber, published 2011)", "binders": {"B1": {"name": "mouse anti-human PD-L2 antibody 24F.10C12 (antibody, V domains shown)", "VH": "QVQLQQSAAELARPGASVKMSCKASGYTFTGYTMHWVKQRPGQGLEWIGYINPRSGYTEYNQKFKDKTTLTADKSSSTAYMQLSSLTSEDSAVYYCARPWFAYWGQGTLVTVSA", "VL": "DIVMTQSPSSLTVTAGEKVTMSCKSSQSLLNSGNQKNYLTWYQQKPGQPPKLLIYWASTRESGVPDRFTGSGSGTDFTLTISSVQAEDLAVYYCQNDYSYPLTFGAGTKLELK", "notes": "Mouse monoclonal antibody; also called Biotin-24F.10C12"}, "B2": {"name": "24F.10C12 composite, human antibody VH2/VK2 (antibody, V domains shown)", "VH": "QVQLVQSGAEVKKPGASVKMSCKASGYTFTGYTMHWVKQAPGQGLEWIGYINPRSGYTEYNQKFKDRTTLTADKSTSTAYMELSSLRSEDTAVYYCARPWFAYWGQGTLVTVSS", "VL": "B1 VL with S9A, T12S, A15P, M21I, S22T, V84L, L89V, A106Q, L112I", "notes": "V regions cloned into vectors containing human constant regions (quantified against an IgG1/kappa standard; isotype not expressly stated)"}, "B3": {"name": "24F.10C12 composite, human antibody VH4/VK2 (antibody, V domains shown)", "VH": "B2 VH with M20V, K38R", "VL": "B1 VL with S9A, T12S, A15P, M21I, S22T, V84L, L89V, A106Q, L112I", "notes": "as for B2"}, "B4": {"name": "24F.10C12 composite, human antibody VH2/VK3 (antibody, V domains shown)", "VH": "B2 VH", "VL": "B1 VL with S9A, S10F, T12S, A15P, M21I, S22T, V84L, L89V, A106Q, L112I", "notes": "as for B2"}, "B5": {"name": "24F.10C12 composite, human antibody VH4/VK4 (antibody, V domains shown)", "VH": "B2 VH with M20V, K38R", "VL": "DIVMTQSPAFLSVTPGEKVTITCKSSQSLLNSGNQKNYLTWYQQKPGQPPKLLIYWASTRESGVPDRFSGSGSGTDFTLTISSLQAEDVAVYYCQNDYSYPLTFGQGTKLEIK", "notes": "as for B2"}, "B6": {"name": "mouse anti-human PD-L1 antibody 29E.2A3 (antibody, V domains shown)", "VH": "EVQLQQSGPELVKPGASVKMSCKASGYTFTSYVMHWVKQKPGQGLEWIGYVNPFNDGTKYNEMFKGKATLTSDKSSSTAYMELSSLTSEDSAVYYCARQAWGYPWGQGTLVTVSA", "VL": "DIVLTQSPASLAVSLGQRATISCRATESVEYYGTSLVQWYQQKPGQPPKLLIYAASSVDSGVPARFSGSGSGTDFSLTIHPVEEDDIAMYFCQQSRRVPYTFGGGTKLEIK", "notes": "Mouse monoclonal antibody; also called Biotin-29E.2A3"}, "B7": {"name": "EH12.2H7 composite, human antibody VH3/VK3 (antibody, V domains shown)", "VH": "QVQLVQSGHEVKQPGASVKMSCKASGYSFTSSWIHWVKQAPGQGLEWIGYIYPSTGFTEYNQKFKDRATLTADKSTSTAYMELSSLRSEDTAVYYCARWRDSSGYHAMDYWGQGTLVTVSS", "VL": "EIVLTQSPATLSLSPGQRLTISCRASQSVSTSGYSYMHWYQQKPDQSPKLLIKFGSNLESGIPARFSGSGSGTDFTLTISSLEPEDFATYYCQHSWEIPYTFGQGTKLEIK", "notes": "as for B2"}, "B8": {"name": "EH12.2H7 composite, human antibody VH3/VK4 (antibody, V domains shown)", "VH": "B7 VH", "VL": "B7 VL with E1D, T89V", "notes": "as for B2"}, "B9": {"name": "EH12.2H7 composite, human antibody VH4/VK3 (antibody, V domains shown)", "VH": "B7 VH with K38R", "VL": "B7 VL", "notes": "as for B2"}, "B10": {"name": "EH12.2H7 composite, human antibody VH4/VK4 (antibody, V domains shown)", "VH": "B7 VH with K38R", "VL": "B7 VL with E1D, T89V", "notes": "as for B2"}, "B11": {"name": "mouse anti-human PD-1 antibody EH12.2H7 (antibody, V domains shown)", "VH": "QVQLQQSGAELAKPGASVQMSCKASGYSFTSSWIHWVKQRPGQGLEWIGYIYPSTGFTEYNQKFKDKATLTADKSSSTAYMQLSSLTSEDSAVYYCARWRDSSGYHAMDYWGQGTSVTVSS", "VL": "DIVLTQSPASLTVSLGQRATISCRASQSVSTSGYSYMHWYQQKPGQPPKLLIKFGSNLESGIPARFSGSGSGTDFTLNIHPVEEEDTATYYCQHSWEIPYTFGGGTKLEIK", "notes": "Mouse monoclonal antibody; also called Biotin-EH12.2H7"}, "B12": {"name": "29E.2A3 composite, human antibody VH2/VK2 (antibody, V domains shown)", "VH": "EVQLVQSGAEVKKPGASVKMSCKASGYTFTSYVMHWVKQAPGQRLEWIGYVNPFNDGTKYNEMFKGRATLTSDKSTSTAYMELSSLRSEDTAVYYCARQAWGYPWGQGTLVTVSS", "VL": "DIVLTQSPATLSLSPGERATLSCRATESVEYYGTSLVQWYQQKPGQPPKLLIYAASSVDSGVPSRFSGSGSGTDFTLTINSLEAEDAAMYFCQQSRRVPYTFGQGTKLEIK", "notes": "as for B2"}, "B13": {"name": "29E.2A3 composite, human antibody VH4/VK2 (antibody, V domains shown)", "VH": "B12 VH with M20V, K38R", "VL": "B12 VL", "notes": "as for B2"}, "B14": {"name": "29E.2A3 composite, human antibody VH2/VK1 (antibody, V domains shown)", "VH": "B12 VH", "VL": "B12 VL with T10S, S12A, A84E", "notes": "as for B2"}}, "key": {"[1]": {"biological_target": "T1, human Fc-PD-L2 (R&D systems) (human, UniProt Q9BQ51 20-219)", "T1 construct": "Bought Fc fusion coated on the ELISA plate; also called human PD-L2; not shown: Fc part of the bought fusion protein", "T1 sequence": "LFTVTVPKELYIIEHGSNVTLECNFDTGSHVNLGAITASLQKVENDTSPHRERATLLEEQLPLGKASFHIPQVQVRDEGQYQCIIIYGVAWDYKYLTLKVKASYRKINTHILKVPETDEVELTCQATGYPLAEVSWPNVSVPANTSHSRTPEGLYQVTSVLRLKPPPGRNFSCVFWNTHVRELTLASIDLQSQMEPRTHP", "assay": "competition ELISA on coated human Fc-PD-L2; competitor biotinylated 24F.10C12"}, "[2]": {"biological_target": "T1, human Fc-PD-L2 (R&D systems)", "assay": "competition ELISA on coated human Fc-PD-L2; IC50 against mouse 24F.10C12"}, "[3]": {"biological_target": "T2, human Fc-PD-L1 (R&D systems) (human, UniProt Q9NZQ7 19-239)", "T2 construct": "Bought Fc fusion coated on the ELISA plate; also called human PD-L1; not shown: Fc part of the bought fusion protein", "T2 sequence (Q9NZQ7 19-239 limits assumed)": "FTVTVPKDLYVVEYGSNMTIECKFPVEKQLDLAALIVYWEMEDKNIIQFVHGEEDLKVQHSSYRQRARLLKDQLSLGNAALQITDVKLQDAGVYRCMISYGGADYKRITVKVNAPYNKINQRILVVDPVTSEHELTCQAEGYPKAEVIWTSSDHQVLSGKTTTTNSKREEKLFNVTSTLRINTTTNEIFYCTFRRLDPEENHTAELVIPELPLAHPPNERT", "assay": "competition ELISA on coated human Fc-PD-L1; competitor biotinylated 29E.2A3"}, "[4]": {"biological_target": "T3, human Fc-PD-1 (R&D systems) (human, UniProt Q15116 25-167)", "T3 construct": "Bought Fc fusion coated on the ELISA plate; also called human PD-1; not shown: Fc part of the bought fusion protein", "T3 sequence (Q15116 25-167 limits assumed)": "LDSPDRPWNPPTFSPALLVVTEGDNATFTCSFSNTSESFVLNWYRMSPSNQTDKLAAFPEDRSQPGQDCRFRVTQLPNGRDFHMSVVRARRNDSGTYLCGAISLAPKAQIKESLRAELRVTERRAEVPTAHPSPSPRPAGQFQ", "assay": "competition ELISA on coated human Fc-PD-1; competitor biotinylated EH12.2H7"}, "[5]": {"biological_target": "T3, human Fc-PD-1 (R&D systems)", "assay": "competition ELISA on coated human Fc-PD-1; IC50 against mouse EH12.2H7"}, "[6]": {"biological_target": "T2, human Fc-PD-L1 (R&D systems)", "assay": "competition ELISA on coated human Fc-PD-L1; IC50 against mouse 29E.2A3"}}, "note": "Where a chain is given by its changes, count along the chain named.", "data": [{"binder": "B1", "values": [{"measurement": "IC50", "setting": "[1]", "result": 0.52, "unit": "µg/mL"}]}, {"binder": "B2", "values": [{"measurement": "IC50", "setting": "[1]", "result": 0.58, "unit": "µg/mL"}, {"measurement": "fold reduced binding compared to the mouse reference", "setting": "[2]", "result": 1.13, "unit": "fold"}]}, {"binder": "B3", "values": [{"measurement": "IC50", "setting": "[1]", "result": 0.6, "unit": "µg/mL"}, {"measurement": "fold reduced binding compared to the mouse reference", "setting": "[2]", "result": 1.13, "unit": "fold"}]}, {"binder": "B4", "values": [{"measurement": "IC50", "setting": "[1]", "result": 0.59, "unit": "µg/mL"}, {"measurement": "fold reduced binding compared to the mouse reference", "setting": "[2]", "result": 1.13, "unit": "fold"}]}, {"binder": "B5", "values": [{"measurement": "IC50", "setting": "[1]", "result": 0.58, "unit": "µg/mL"}, {"measurement": "fold reduced binding compared to the mouse reference", "setting": "[2]", "result": 1.13, "unit": "fold"}]}, {"binder": "B6", "values": [{"measurement": "IC50", "setting": "[3]", "result": 0.28, "unit": "µg/mL"}]}, {"binder": "B7", "values": [{"measurement": "IC50", "setting": "[4]", "result": 0.93, "unit": "µg/mL"}]}, {"binder": "B8", "values": [{"measurement": "IC50", "setting": "[4]", "result": 0.74, "unit": "µg/mL"}]}, {"binder": "B9", "values": [{"measurement": "fold increase in binding compared to the mouse reference", "setting": "[5]", "result": 2, "unit": "fold"}, {"measurement": "IC50", "setting": "[4]", "result": 0.57, "unit": "µg/mL"}]}, {"binder": "B10", "values": [{"measurement": "IC50", "setting": "[4]", "result": 0.91, "unit": "µg/mL"}]}, {"binder": "B11", "values": [{"measurement": "IC50", "setting": "[4]", "result": 1.23, "unit": "µg/mL"}]}, {"binder": "B12", "values": [{"measurement": "fold reduced binding compared to the mouse reference", "setting": "[6]", "result": 1.75, "unit": "fold"}, {"measurement": "IC50", "setting": "[3]", "result": 0.49, "unit": "µg/mL"}]}, {"binder": "B13", "values": [{"measurement": "fold reduced binding compared to the mouse reference", "setting": "[6]", "result": 1.36, "unit": "fold"}, {"measurement": "IC50", "setting": "[3]", "result": 0.38, "unit": "µg/mL"}]}, {"binder": "B14", "values": [{"measurement": "IC50", "setting": "[3]", "result": 0.27, "unit": "µg/mL"}]}]}
